This note sets out measurements from patent US20210070881A1 (DENALI THERAPEUTICS, published 2021).

As a reminder, the Kd is a measure of binding affinity in units of concentration. The term IC50 denotes the concentration needed to halve the response being measured. Low readings indicate inhibition by little substance, high ones a need for much substance. The koff is a measure of how fast the partners let go of each other. As a reminder, the kon is the rate constant with which the complex forms.

The target of assay [1] is T1, recombinant BACE1 (BACE1 extracellular domain, R&D Systems Cat#931-AS) (UniProt P56817 22-457).
T1 construct: extracellular domain; also called BACE1 extracellular domain protein
As to the kind of experiment: SPR Biacore. (In SPR one partner is held on a chip, and binding of the other changes the refractive index at the surface.)

The target in assay [2] is T1, recombinant BACE1 (BACE1 extracellular …). As to the kind of experiment: SPR Biacore 8K, antibody captured, BACE1 analyte. On the procedure: (§1) The binding affinities of the affinity matured humanized 2H8 variants for BACE1 were determined by surface plasmon resonance using a Biacore™ 8K instrument. […] The binding was monitored for 300 seconds and then dissociation was monitored for 600+ seconds in HBS-EP+ running buffer (GE Healthcare Life Sciences, BR100669). Binding response was corrected by subtracting the RU from a blank flow cell. A 1:1 Langmuir model of simultaneous fitting of kₒₙ and koff was used for kinetics analysis.

Assay [3] has as its target cellular BACE1 in CHOK1-huAPP cells. As to the kind of experiment: cell-based or functional assay.
Assay [4] concerns the target T1, recombinant BACE1 (BACE1 extracellular …). Kind of assay: SPR Biacore 8K, antibody captured, BACE1 analyte. On the procedure:
as §1
This is another data set of the same source.

In assay [5] the target is cellular BACE1 in CHOK1-huAPP cells. Kind of assay: cell-based or functional assay. The source holds these as a separate data set.
In assay [6] the target is T1, recombinant BACE1 (BACE1 extracellular …). As to the kind of experiment: SPR Biacore T200, IgG captured, BACE1 analyte. On the procedure:
The affinity of chimeric IgG antibodies for recombinant BACE1 was determined by surface plasmon resonance using a Biacore™ T200 instrument. Biacore™ Series S CMS sensor chips were immobilized with monoclonal mouse anti-human IgG (Fc) antibody (e.g., using a human antibody capture kit from GE Healthcare). 1 μg/mL of antibody was captured for 1 minute on each flow cell and serial 3-fold dilutions of recombinant BACE1 were injected at a flow rate of 30 μL/min. Each sample was analyzed with a 3-minute association and a 10-minute dissociation. After each injection, the chip was regenerated using 3M MgCl₂. Binding response was corrected by subtracting the RU from a flow cell capturing an irrelevant IgG at similar density. A 1:1 Langmuir model of simultaneous fitting of kₒₙ and koff was used for analysis of kinetics.

Assay [7] concerns the target T2, human TfR (human, UniProt P02786 89-760, limits assumed).
T2 construct: Protein coated on ELISA plates; also called human transferrin receptor protein 1
Kind of assay: soft-randomization libraries selected on TfR.

T1 sequence (P56817 22-457): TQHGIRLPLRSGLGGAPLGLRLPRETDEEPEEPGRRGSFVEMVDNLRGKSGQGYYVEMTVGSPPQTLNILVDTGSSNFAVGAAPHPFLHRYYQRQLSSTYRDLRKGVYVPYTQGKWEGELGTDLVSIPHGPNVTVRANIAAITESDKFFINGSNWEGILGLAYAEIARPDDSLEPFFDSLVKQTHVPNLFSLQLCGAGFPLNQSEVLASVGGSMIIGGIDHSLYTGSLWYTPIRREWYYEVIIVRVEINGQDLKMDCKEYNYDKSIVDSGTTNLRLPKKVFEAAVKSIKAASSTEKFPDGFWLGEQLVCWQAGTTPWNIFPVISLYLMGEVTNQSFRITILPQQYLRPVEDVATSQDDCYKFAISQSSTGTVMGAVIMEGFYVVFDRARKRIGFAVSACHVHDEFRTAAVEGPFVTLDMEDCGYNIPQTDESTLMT
T2 sequence (P02786 89-760 limits assumed): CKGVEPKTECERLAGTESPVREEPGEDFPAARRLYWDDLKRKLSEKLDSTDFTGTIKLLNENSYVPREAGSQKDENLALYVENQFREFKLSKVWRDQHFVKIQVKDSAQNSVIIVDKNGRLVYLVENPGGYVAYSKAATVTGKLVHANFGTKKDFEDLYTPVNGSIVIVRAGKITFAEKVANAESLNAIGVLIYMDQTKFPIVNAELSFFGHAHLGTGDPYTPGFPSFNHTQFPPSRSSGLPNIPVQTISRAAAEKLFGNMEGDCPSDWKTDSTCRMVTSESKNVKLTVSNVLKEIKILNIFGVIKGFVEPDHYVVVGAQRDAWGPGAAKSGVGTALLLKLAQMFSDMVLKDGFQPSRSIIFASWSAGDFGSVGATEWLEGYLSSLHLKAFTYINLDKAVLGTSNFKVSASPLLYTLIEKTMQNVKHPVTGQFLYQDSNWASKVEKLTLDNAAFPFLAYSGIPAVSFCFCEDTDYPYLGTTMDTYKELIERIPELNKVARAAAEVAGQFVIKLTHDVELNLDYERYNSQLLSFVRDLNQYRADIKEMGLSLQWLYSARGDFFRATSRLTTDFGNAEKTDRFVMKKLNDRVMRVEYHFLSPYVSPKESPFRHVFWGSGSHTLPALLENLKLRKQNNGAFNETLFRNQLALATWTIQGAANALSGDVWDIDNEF

B1: hu2H8v29 (antibody, V domains shown)
VH: QVQLVQSGAEVKKPGASVKVSCKASGYTFTNFWIHWVRQAPGQGLEWMGMIDPSDSYTKYNQKFKARATLTVDTSTSTVYMELSSLRSEDTAVYYCARSGVAFPYWGQGTLVTVSS
VL: DIQMTQSPSSLSASVGDRVTITCKASQDVGRNVAWYQQKPGKSPKSLIYSASHRYSGVPSRFSGSGSGTDFTLTISSLQPEDFATYFCQQYNSYPYTFGQGTKVEIK
notes: humanized; also called hu2H8_HC6 + hu2H8_LC5
Regarding B1, the Kd in assay [1] was found to be 12 nM; in assay [2], 9.21 nM; in assay [4], 9.21 nM. For the same molecule, 14.8 nM corresponded to half-maximal inhibition in assay [3] (IC50). In assay [3], this molecule showed a Max. % inhibition of 86%.

B2: hu2H8v29.4 (antibody, V domains shown)
VH: QVQLVQSGAEVKKPGASVKVSCKASGYTFTNFWIHWVRQAPGQGLEWMGMIDPSDSYTKYNQKFKARATLTVDTSTSTVYMELSSLRSEDTAVYYCARSGVAFPYWGQGTLVTVSS
VL: DIQMTQSPSSLSASVGDRVTITCKASQDVGRNVAWYQQKPGKSPKSLIYSASHQYSGVPSRFSGSGSGTDFTLTISSLQPEDFATYFCQQYNSYPYTFGQGTKVEIK
notes: captured via human Fc; also called hu2H8_HC6 + hu2H8_LC5.4
As to B2, the Kd in assay [2] came to 6.53 nM.

B3: hu2H8v29.1 (antibody, V domains shown)
VH: QVQLVQSGAEVKKPGASVKVSCKASGYTFTNFWIHWVRQAPGQGLEWMGMIDPSDSYTKYNQKFKARATLTVDTSTSTVYMELSSLRSEDTAVYYCARSGVAFPYWGQGTLVTVSS
VL: DIQMTQSPSSLSASVGDRVTITCKASQDVGRNVAWYQQKPGKSPKSLIYSASHYYSGVPSRFSGSGSGTDFTLTISSLQPEDFATYFCQQYNSYPYTFGQGTKVEIK
notes: captured via human Fc; also called hu2H8_HC6 + hu2H8_LC5.1
With B3, the Kd in assay [2] was determined as 7.22 nM.

B4: hu2H8v29.3 (antibody, V domains shown)
VH: QVQLVQSGAEVKKPGASVKVSCKASGYTFTNFWIHWVRQAPGQGLEWMGMIDPSDSYTKYNQKFKARATLTVDTSTSTVYMELSSLRSEDTAVYYCARSGVAFPYWGQGTLVTVSS
VL: DIQMTQSPSSLSASVGDRVTITCKASQDVGRNVAWYQQKPGKSPKSLIYSASHMYSGVPSRFSGSGSGTDFTLTISSLQPEDFATYFCQQYNSYPYTFGQGTKVEIK
notes: captured via human Fc; also called hu2H8_HC6 + hu2H8_LC5.3
With B4, the Kd in assay [2] is 6.93 nM.

B5: hu2H8v29.5 (antibody, V domains shown)
VH: QVQLVQSGAEVKKPGASVKVSCKASGYTFTNFWIHWVRQAPGQGLEWMGMIDPSDSYTKYNQKFKARATLTVDTSTSTVYMELSSLRSEDTAVYYCARSGVAFPYWGQGTLVTVSS
VL: DIQMTQSPSSLSASVGDRVTITCKASQDVGRNVAWYQQKPGKSPKSLIYSASHKYSGVPSRFSGSGSGTDFTLTISSLQPEDFATYFCQQYNSYPYTFGQGTKVEIK
notes: captured via human Fc; also called hu2H8_HC6 + hu2H8_LC5.5
Regarding B5, in assay [2], the Kd turned out to be 8.21 nM.

B6: hu2H8v29.11 (antibody, V domains shown)
VH: QVQLVQSGAEVKKPGASVKVSCKASGYTFTNFWIHWVRQAPGQGLEWMGMIDPSDSYTKYNQKFKARATLTVDTSTSTVYMELSSLRSEDTAVYYCARSGVAFPYWGQGTLVTVSS
VL: DIQMTQSPSSLSASVGDRVTITCKASQDVGRNVAWYQQKPGKSPKSLIYSASHRYSGVPSRFSGSGSGTDFTLTISSLQPEDFATYFCQQYYSYAYTFGQGTKVEIK
notes: captured via human Fc; also called hu2H8_HC6 + hu2H8_LC5.11
B6: the Kd in assay [2] turned out to be 4.83 nM.

B7: hu2H8v29.6 (antibody, V domains shown)
VH: QVQLVQSGAEVKKPGASVKVSCKASGYTFTNFWIHWVRQAPGQGLEWMGMIDPSDSYTKYNQKFKARATLTVDTSTSTVYMELSSLRSEDTAVYYCARSGVAFPYWGQGTLVTVSS
VL: DIQMTQSPSSLSASVGDRVTITCKASQDVGRNVAWYQQKPGKSPKSLIYSASHLYSGVPSRFSGSGSGTDFTLTISSLQPEDFATYFCQQYNSYPYTFGQGTKVEIK
notes: captured via human Fc; also called hu2H8_HC6 + hu2H8_LC5.6
As to B7, the dissociation constant (Kd) in assay [2] was determined as 7.51 nM.

B8: hu2H8v27 (antibody, V domains shown)
VH: QVQLVQSGAEVKKPGASVKVSCKASGYTFTNFWIHWLRQAPGQGLEWMGMIDPSDSYTKYNQKFKARVTMTVDTSTSTTYMELSSLRSEDTAVYYCARSGVAFPYWGQGTLVTVSS
VL: DIQMTQSPSSLSASVGDRVTITCKASQDVGRNVAWYQQKPGKSPKSLIYSASHRYSGVPSRFSGSGSGTDFTLTISSLQPEDFATYFCQQYNSYPYTFGQGTKVEIK
notes: humanized; also called hu2H8_HC3 + hu2H8_LC5
As to B8, the dissociation constant (Kd) in assay [1] worked out at 12.8 nM. Besides, in assay [3], it took 16.5 nM to reach half-maximal inhibition (IC50) and the Max. % inhibition is 85%.

B9: hu2H8v17 (antibody, V domains shown)
VH: QVQLVQSGAEVKKPGASVKVSCKASGYTFTNFWIHWVRQAPGQGLEWMGMIDPSDSYTKYNQKFKARATLTVDTSTSTVYMELSSLRSEDTAVYYCARSGVAFPYWGQGTLVTVSS
VL: DIQMTQSPSSLSASVGDRVTITCKASQDVGRNVAWYQQKPGKAPKSLIYSASHRYSGVPSRFSGSGSGTDFTLTISSLQPEDFATYYCQQYNSYPYTFGQGTKVEIK
notes: humanized; also called hu2H8_HC6 + hu2H8_LC3
Turning to B9, the Kd in assay [1] amounted to 12.1 nM. In assay [3], 22.1 nM corresponded to half-maximal inhibition (IC50) and the Max. % inhibition is 91%.

B10: hu2H8v29.7 (antibody, V domains shown)
VH: QVQLVQSGAEVKKPGASVKVSCKASGYTFTNFWIHWVRQAPGQGLEWMGMIDPSDSYTKYNQKFKARATLTVDTSTSTVYMELSSLRSEDTAVYYCARSGVAFPYWGQGTLVTVSS
VL: DIQMTQSPSSLSASVGDRVTITCKASQDVGRNVAWYQQKPGKSPKSLIYSASHRYSGVPSRFSGSGSGTDFTLTISSLQPEDFATYFCQQYSSYPYTFGQGTKVEIK
notes: captured via human Fc; also called hu2H8_HC6 + hu2H8_LC5.7
Turning to B10, the Kd in assay [2] was 4.99 nM.

B11: hu2H8v29.10 (antibody, V domains shown)
VH: QVQLVQSGAEVKKPGASVKVSCKASGYTFTNFWIHWVRQAPGQGLEWMGMIDPSDSYTKYNQKFKARATLTVDTSTSTVYMELSSLRSEDTAVYYCARSGVAFPYWGQGTLVTVSS
VL: DIQMTQSPSSLSASVGDRVTITCKASQDVGRNVAWYQQKPGKSPKSLIYSASHRYSGVPSRFSGSGSGTDFTLTISSLQPEDFATYFCQQYYSYPYTFGQGTKVEIK
notes: captured via human Fc; also called hu2H8_HC6 + hu2H8_LC5.10
As for B11, the Kd in assay [2] came to 4.84 nM.

B12: hu2H8v29.2 (antibody, V domains shown)
VH: QVQLVQSGAEVKKPGASVKVSCKASGYTFTNFWIHWVRQAPGQGLEWMGMIDPSDSYTKYNQKFKARATLTVDTSTSTVYMELSSLRSEDTAVYYCARSGVAFPYWGQGTLVTVSS
VL: DIQMTQSPSSLSASVGDRVTITCKASQDVGRNVAWYQQKPGKSPKSLIYSASHNYSGVPSRFSGSGSGTDFTLTISSLQPEDFATYFCQQYNSYPYTFGQGTKVEIK
notes: captured via human Fc; also called hu2H8_HC6 + hu2H8_LC5.2
Take B12: the Kd in assay [2] was found to be 8.16 nM.

B13: hu2H8v29.9 (antibody, V domains shown)
VH: QVQLVQSGAEVKKPGASVKVSCKASGYTFTNFWIHWVRQAPGQGLEWMGMIDPSDSYTKYNQKFKARATLTVDTSTSTVYMELSSLRSEDTAVYYCARSGVAFPYWGQGTLVTVSS
VL: DIQMTQSPSSLSASVGDRVTITCKASQDVGRNVAWYQQKPGKSPKSLIYSASHRYSGVPSRFSGSGSGTDFTLTISSLQPEDFATYFCQQYNAYPYTFGQGTKVEIK
notes: captured via human Fc; also called hu2H8_HC6 + hu2H8_LC5.9
On to B13, for which the Kd in assay [2] came out at 11 nM.

B14: hu2H8v29.8 (antibody, V domains shown)
VH: QVQLVQSGAEVKKPGASVKVSCKASGYTFTNFWIHWVRQAPGQGLEWMGMIDPSDSYTKYNQKFKARATLTVDTSTSTVYMELSSLRSEDTAVYYCARSGVAFPYWGQGTLVTVSS
VL: DIQMTQSPSSLSASVGDRVTITCKASQDVGRNVAWYQQKPGKSPKSLIYSASHRYSGVPSRFSGSGSGTDFTLTISSLQPEDFATYFCQQYQSYPYTFGQGTKVEIK
notes: captured via human Fc; also called hu2H8_HC6 + hu2H8_LC5.8
As to B14, the Kd in assay [2] was found to be 8.1 nM.

B15: 2E1 (antibody, human IgG1, V domains shown)
VH: EVQLQQPGTELVRPGTSVKLSCKASGYTFTNFWMHWVKQRPGQGLEWIGVINPSDTYTKFNQKFRGKATLTVDTSSSTAYMQLSSLTSEDSAVYFCARPTVGLDYWGQGTSVTVSS
VL: DIVMTQSQKFMPTSVGDRVSVTCKASQNVGSNVAWYQQKSGQSPKALIYSASHRYSGVPDRFTGSGSGTDFTLTISNVQSEDLAEYFCQQYNSYPYTFGGGTKLEIK
notes: chimeric, human IgG1/kappa; also called Clone 2E1
In the case of B15, in assay [5], the “% Max Inhibition” value came to 63% and the “Cellular IC50” value stood at 34 nM. In assay [6], the Kd amounted to 71 nM, the koff is 0.0013 s⁻¹ and the kon turned out to be 18000 M⁻¹ s⁻¹.

B16: 1F1 (antibody, human IgG1, V domains shown)
VH: EVQLQQSGAELMKPGASVKLSCKATGYTFIGYWIDWVKQRPGHGLEWIGEILPGGGSTNHNEKFKGKATFTTDTSSNTVYMQLSSLTTEDSAIYYCAREGSYGNYYFDYWGQGTSVTVSS
VL: DIQMTQTPLSLPVSLGDQASISCRSSQSIVHSNGNTYLEWYLQKPGQSPKLLIYKVSNRFSGVPDRFSGSGSGTDFTLKISRVEAEDLGVYYCFQGSHVPYTFGGGTKLEIK
notes: chimeric, human IgG1/kappa; also called Clone 1F1
With B16, in assay [5], the “% Max Inhibition” value was determined as 63% and the “Cellular IC50” value is 11 nM. Besides, in assay [6], the Kd is 5 nM, the koff was determined as 0.00024 s⁻¹ and the kon stood at 49000 M⁻¹ s⁻¹.

B17: Clone CH3C.21 (designed binder)
chain: APELLGGPSVFLFPPKPKDTLMISRTPEVTCVVVDVSHEDPEVKFNWYVDGVEVHNAKTKPREEQYNSTYRVVSVLTVLHQDWLNGKEYKCKVSNKALPAPIEKTISKAKGQPREPQVYTLPPSRDELTKNQVSLTCLVKGFYPSDIAVEWESLGLVWVGYKTTPPVLDSDGSFFLYSKLTVPKSTWQQGWVFSCSVMHEALHNHYTQKSLSLSPGK
notes: modified Fc polypeptide
As for B17, in assay [7], the binding result is listed as “binds”.
